From PMC5708649, “A novel Porphyromonas gingivalis enzyme: An atypical dipeptidyl peptidase III with an ARM repeat domain” (PLoS ONE, 2017) come the findings set out here.

For data set [1], the system named is N=C(N)NCCC[C@H](NC(=O)[C@@H](N)CCCNC(=N)N)C(=O)Nc1ccc2ccccc2c1. Nature of the data set: purified protein, by the assay type. The settings on record: pH 8.0; 26.0 °C.
In data set [2] the test system is Cc1cc(=O)oc2cc(NC(=O)[C@H](CCCNC(=N)N)NC(=O)[C@@H](N)CCCNC(=N)N)ccc12. Kind of data set: purified protein, by the assay type. To be noted: pH 8.0; 26.0 °C.

Consider “DPP III fragment (1–679 aa) (Porphyromonas gingivalis W83)”, for which, in data set [1], the Km came out at 4.37 ± 0.42 µM, the turnover number (kcat) stood at 0.0032 ± 0.0005 s⁻¹ and the kcat/Km came out at 732 M⁻¹ s⁻¹. Also, in data set [2], the Km was 9.97 ± 0.44 µM, the kcat amounted to 0.0024 ± 0.0014 s⁻¹ and the kcat/Km amounted to 241 M⁻¹ s⁻¹.
